# Assay results reported in publication PMC4860839, “Structures of the APC–ARM domain in complexes with discrete Amer1/WTX fragments reveal that it uses a consensus mode to recognize its binding partners” (Cell Discovery, 2015).
# B1: pBTM-APC–ARM (residues 308–789), two-hybrid bait [human] / Amer1-A4 (human, residues 337–455), two-hybrid prey [human] (parent complex)
# chain 1: LGTKVEMVYSLLSMLGTHDKDDMSRTLLAMSSSQDSCISMRQSGCLPLLIQLLHGNDKDSVLLGNSRGSKEARARASAALHNIIHSQPDDKRGRREIRVLHLLEQIRAYCETCWEWQEAHEPGMDQDKNPMPAPVEHQICPAVCVLMKLSFDEEHRHAMNELGGLQAIAELLQVDCEMYGLTNDHYSITLRRYAGMALTNLTFGDVANKATLCSMKGCMRALVAQLKSESEDLQQVIASVLRNLSWRADVNSKKTLREVGSVKALMECALEVKKESTLKSVLSALWNLSAHCTENKADICAVDGALAFLVGTLTYRSQTNTLAIIESGGGILRNVSSLIATNEDHRQILRENNCLQTLLQHLKSHSLTIVSNACGTLWNLSARNPKDQEALWDMGAVSMLKNLIHSKHKMIAMGSAAALRNLMANRPAKYKDANIMSPGSSLPSLHVRKQKALEAELDAQHLSETFDNIDNLSPKASHRSKQ
# chain 2: MDSMTDSMASGGQRANRDGTKRSSCLVTYQGGGEEMALPDDDDEEEEEEEEVELEEEEEEVKEEEEDDDLEYLWETAQMYPRPNMNLGYHPTTSPGHHGYMLLDPVRSYPGLAPGELLT
# B2: pBTM-APC–ARM (residues 308–789), two-hybrid bait [human] / Amer1-A1 (murine, residues 279–367), two-hybrid prey [murine] (parent complex)
# chain 1: B1 chain 1
# chain 2: SLEEPHTSETEGKVVAGEVNPPNGPVGDQLSLLFGDVTSLKSFDSLTGCGDIIAEQDMDSMTDSMASGGQRANRDGTKRSSCLVTYQGG
# Variants of: B1
# Assay: yeast two-hybrid assay (relative β-galactosidase reporter activity); parent: 100
row,percent of parent,Variant
1,28.1%,chain 1 LGTKVEMVYSLLSMLGTHDKDDMSRTLLAMSSSQDSCISMRQSGCLPLLIQLLHGNDKDSVLLGNSRGSKEARARASAALHNIIHSQPDDKRGRREIRVLHLLEQIRAYCETCWEWQEAHEPGMDQDKNPMPAPVEHQICPAVCVLMKLSFDEEHRHAMNELGGLQAIAELLQVDCEMYGLTNDHYSITLRRYAGMALTNLTFGDVANKATLCSMKGCMRALVAQLKSESEDLQQVIASVLRNLSWRADVNSKKTLREVGSVKALMECALEVKKESTLKSVLSALWNLSAHCTENKADICAVDGALAFLVGTLTYRSQTNTLAIIESGGGILRNVSSLIATNEDHRQILRENNCLQTLLQHLKSHSLTIVSNACGTLWNLSARNPKDQEALWDMGAVSMLKNLIHSKHKKIAMGSAAALRNLMANRPAKYKDANIMSPGSSLPSLHVRKQKALEAELDAQHLSETFDNIDNLSPKASHRSKQ [chain 1 M410K]
2,132%,chain 1 LGTKVEMVYSLLSMLGTHDKDDMSRTLLAMSSSQDSCISMRQSGCLPLLIQLLHGNDKDSVLLGNSRGSKEARARASAALHNIIHSQPDDKRGRREIRVLHLLEQIRAYCETCWEWQEAHEPGMDQDKNPMPAPVEHQICPAVCVLMKLSFDEEHRHAMNELGGLQAIAELLQVDCEMYGLTNDHYSITLRRYAGMALTNLTFGDVANKATLCSMKGCMRALVAQLKSESEDLQQVIASVLRNLSWRADVNSKKTLREVGSVKALMECALEVKKESTLKSVLSALWNLSAHCTENKADICAVDGALAFLVGTLTYRSQTNTLAIIESGGGILRNVSSLIATNEDHRQILRENNCLQTLLQHLKSHSLTIVSNACGTLWNLSARNPKDQEALWDMGAVSMLKNLIHSKHKMIAMGSAAALENLMANRPAKYKDANIMSPGSSLPSLHVRKQKALEAELDAQHLSETFDNIDNLSPKASHRSKQ [chain 1 R420E]

# The remaining lines, values behind:
row,Variant,percent of parent
1,chain 1 LGTKVEMVYSLLSMLGTHDKDDMSRTLLAMSSSQDSCISMRQSGCLPLLIQLLHGNDKDSVLLGNSRGSKEARARASAALHNIIHSQPDDKRGRREIRVLHLLEQIRAYCETCWEWQEAHEPGMDQDKNPMPAPVEHQICPAVCVLMKLSFDEEHRHAMNELGGLQAIAELLQVDCEMYGLTNDHYSITLRRYAGMALTNLTFGDVANKATLCSMKGCMRALVAQLKSESEDLQQVIASVLENLSWRADVNSKKTLREVGSVKALMECALEVKKESTLKSVLSALWNLSAHCTENKADICAVDGALAFLVGTLTYRSQTNTLAIIESGGGILRNVSSLIATNEDHRQILRENNCLQTLLQHLKSHSLTIVSNACGTLWNLSARNPKDQEALWDMGAVSMLKNLIHSKHKMIAMGSAAALRNLMANRPAKYKDANIMSPGSSLPSLHVRKQKALEAELDAQHLSETFDNIDNLSPKASHRSKQ [chain 1 R242E],0.84%
2,chain 1 LGTKVEMVYSLLSMLGTHDKDDMSRTLLAMSSSQDSCISMRQSGCLPLLIQLLHGNDKDSVLLGNSRGSKEARARASAALHNIIHSQPDDKRGRREIRVLHLLEQIRAYCETCWEWQEAHEPGMDQDKNPMPAPVEHQICPAVCVLMKLSFDEEHRHAMNELGGLQAIAELLQVDCEMYGLTNDHYSITLRRYAGMALTNLTFGDVANEATLCSMKGCMRALVAQLKSESEDLQQVIASVLRNLSWRADVNSKKTLREVGSVKALMECALEVKKESTLKSVLSALWNLSAHCTENKADICAVDGALAFLVGTLTYRSQTNTLAIIESGGGILRNVSSLIATNEDHRQILRENNCLQTLLQHLKSHSLTIVSNACGTLWNLSARNPKDQEALWDMGAVSMLKNLIHSKHKMIAMGSAAALRNLMANRPAKYKDANIMSPGSSLPSLHVRKQKALEAELDAQHLSETFDNIDNLSPKASHRSKQ [chain 1 K209E],3.93%
3,chain 1 LGTKVEMVYSLLSMLGTHDKDDMSRTLLAMSSSQDSCISMRQSGCLPLLIQLLHGNDKDSVLLGNSRGSKEARARASAALHNIIHSQPDDKRGRREIRVLHLLEQIRAYCETCWEWQEAHEPGMDQDKNPMPAPVEHQICPAVCVLMKLSFDEEHRHAMNELGGLQAIAELLQVDCEMYGLTNDHYSITLRRYAGMALTNLTFGDVANKATLCSMKGCMRALVAQLKSESEDLQQVIASVLRKLSWRADVNSKKTLREVGSVKALMECALEVKKESTLKSVLSALWNLSAHCTENKADICAVDGALAFLVGTLTYRSQTNTLAIIESGGGILRNVSSLIATNEDHRQILRENNCLQTLLQHLKSHSLTIVSNACGTLWNLSARNPKDQEALWDMGAVSMLKNLIHSKHKMIAMGSAAALRNLMANRPAKYKDANIMSPGSSLPSLHVRKQKALEAELDAQHLSETFDNIDNLSPKASHRSKQ [chain 1 N243K],0.28%
4,chain 1 LGTKVEMVYSLLSMLGTHDKDDMSRTLLAMSSSQDSCISMRQSGCLPLLIQLLHGNDKDSVLLGNSRGSKEARARASAALHNIIHSQPDDKRGRREIRVLHLLEQIRAYCETCWEWQEAHEPGMDQDKNPMPAPVEHQICPAVCVLMKLSFDEEHRHAMNELGGLQAIAELLQVDCEMYGLTNDHYSITLRRYAGMALTKLTFGDVANKATLCSMKGCMRALVAQLKSESEDLQQVIASVLRNLSWRADVNSKKTLREVGSVKALMECALEVKKESTLKSVLSALWNLSAHCTENKADICAVDGALAFLVGTLTYRSQTNTLAIIESGGGILRNVSSLIATNEDHRQILRENNCLQTLLQHLKSHSLTIVSNACGTLWNLSARNPKDQEALWDMGAVSMLKNLIHSKHKMIAMGSAAALRNLMANRPAKYKDANIMSPGSSLPSLHVRKQKALEAELDAQHLSETFDNIDNLSPKASHRSKQ [chain 1 N200K],0.28%

# Variants of: B2
# Assay: as above
row,percent of parent,Variant
1,33.7%,chain 1 LGTKVEMVYSLLSMLGTHDKDDMSRTLLAMSSSQDSCISMRQSGCLPLLIQLLHGNDKDSVLLGNSRGSKEARARASAALHNIIHSQPDDKRGRREIRVLHLLEQIRAYCETCWEWQEAHEPGMDQDKNPMPAPVEHQICPAVCVLMKLSFDEEHRHAMNELGGLQAIAELLQVDCEMYGLTNDHYSITLRRYAGMALTNLTFGDVANKATLCSMKGCMRALVAQLKSESEDLQQVIASVLRNLSWRADVNSKKTLREVGSVKALMECALEVKKESTLKSVLSALWNLSAHCTENKADICAVDGALAFLVGTLTYRSQTNTLAIIESGGGILRNVSSLIATNEDHRQILRENNCLQTLLQHLKSHSLTIVSNACGTLWNLSARNPKDQEALWDMGAVSMLKNLIHSKHKKIAMGSAAALRNLMANRPAKYKDANIMSPGSSLPSLHVRKQKALEAELDAQHLSETFDNIDNLSPKASHRSKQ [chain 1 M410K]
2,0.38%,chain 1 LGTKVEMVYSLLSMLGTHDKDDMSRTLLAMSSSQDSCISMRQSGCLPLLIQLLHGNDKDSVLLGNSRGSKEARARASAALHNIIHSQPDDKRGRREIRVLHLLEQIRAYCETCWEWQEAHEPGMDQDKNPMPAPVEHQICPAVCVLMKLSFDEEHRHAMNELGGLQAIAELLQVDCEMYGLTNDHYSITLRRYAGMALTNLTFGDVANKATLCSMKGCMRALVAQLKSESEDLQQVIASVLRKLSWRADVNSKKTLREVGSVKALMECALEVKKESTLKSVLSALWNLSAHCTENKADICAVDGALAFLVGTLTYRSQTNTLAIIESGGGILRNVSSLIATNEDHRQILRENNCLQTLLQHLKSHSLTIVSNACGTLWNLSARNPKDQEALWDMGAVSMLKNLIHSKHKMIAMGSAAALRNLMANRPAKYKDANIMSPGSSLPSLHVRKQKALEAELDAQHLSETFDNIDNLSPKASHRSKQ [chain 1 N243K]
3,1.48%,chain 1 LGTKVEMVYSLLSMLGTHDKDDMSRTLLAMSSSQDSCISMRQSGCLPLLIQLLHGNDKDSVLLGNSRGSKEARARASAALHNIIHSQPDDKRGRREIRVLHLLEQIRAYCETCWEWQEAHEPGMDQDKNPMPAPVEHQICPAVCVLMKLSFDEEHRHAMNELGGLQAIAELLQVDCEMYGLTNDHYSITLRRYAGMALTNLTFGDVANKATLCSMKGCMRALVAQLKSESEDLQQVIASVLENLSWRADVNSKKTLREVGSVKALMECALEVKKESTLKSVLSALWNLSAHCTENKADICAVDGALAFLVGTLTYRSQTNTLAIIESGGGILRNVSSLIATNEDHRQILRENNCLQTLLQHLKSHSLTIVSNACGTLWNLSARNPKDQEALWDMGAVSMLKNLIHSKHKMIAMGSAAALRNLMANRPAKYKDANIMSPGSSLPSLHVRKQKALEAELDAQHLSETFDNIDNLSPKASHRSKQ [chain 1 R242E]
4,0.09%,chain 1 LGTKVEMVYSLLSMLGTHDKDDMSRTLLAMSSSQDSCISMRQSGCLPLLIQLLHGNDKDSVLLGNSRGSKEARARASAALHNIIHSQPDDKRGRREIRVLHLLEQIRAYCETCWEWQEAHEPGMDQDKNPMPAPVEHQICPAVCVLMKLSFDEEHRHAMNELGGLQAIAELLQVDCEMYGLTNDHYSITLRRYAGMALTNLTFGDVANEATLCSMKGCMRALVAQLKSESEDLQQVIASVLRNLSWRADVNSKKTLREVGSVKALMECALEVKKESTLKSVLSALWNLSAHCTENKADICAVDGALAFLVGTLTYRSQTNTLAIIESGGGILRNVSSLIATNEDHRQILRENNCLQTLLQHLKSHSLTIVSNACGTLWNLSARNPKDQEALWDMGAVSMLKNLIHSKHKMIAMGSAAALRNLMANRPAKYKDANIMSPGSSLPSLHVRKQKALEAELDAQHLSETFDNIDNLSPKASHRSKQ [chain 1 K209E]

# Continued, variant first:
row,Variant,percent of parent
1,chain 1 LGTKVEMVYSLLSMLGTHDKDDMSRTLLAMSSSQDSCISMRQSGCLPLLIQLLHGNDKDSVLLGNSRGSKEARARASAALHNIIHSQPDDKRGRREIRVLHLLEQIRAYCETCWEWQEAHEPGMDQDKNPMPAPVEHQICPAVCVLMKLSFDEEHRHAMNELGGLQAIAELLQVDCEMYGLTNDHYSITLRRYAGMALTNLTFGDVANKATLCSMKGCMRALVAQLKSESEDLQQVIASVLRNLSWRADVNSKKTLREVGSVKALMECALEVKKESTLKSVLSALWNLSAHCTENKADICAVDGALAFLVGTLTYRSQTNTLAIIESGGGILRNVSSLIATNEDHRQILRENNCLQTLLQHLKSHSLTIVSNACGTLWNLSARNPKDQEALWDMGAVSMLKNLIHSKHKMIAMGSAAALENLMANRPAKYKDANIMSPGSSLPSLHVRKQKALEAELDAQHLSETFDNIDNLSPKASHRSKQ [chain 1 R420E],41.3%
2,chain 1 LGTKVEMVYSLLSMLGTHDKDDMSRTLLAMSSSQDSCISMRQSGCLPLLIQLLHGNDKDSVLLGNSRGSKEARARASAALHNIIHSQPDDKRGRREIRVLHLLEQIRAYCETCWEWQEAHEPGMDQDKNPMPAPVEHQICPAVCVLMKLSFDEEHRHAMNELGGLQAIAELLQVDCEMYGLTNDHYSITLRRYAGMALTKLTFGDVANKATLCSMKGCMRALVAQLKSESEDLQQVIASVLRNLSWRADVNSKKTLREVGSVKALMECALEVKKESTLKSVLSALWNLSAHCTENKADICAVDGALAFLVGTLTYRSQTNTLAIIESGGGILRNVSSLIATNEDHRQILRENNCLQTLLQHLKSHSLTIVSNACGTLWNLSARNPKDQEALWDMGAVSMLKNLIHSKHKMIAMGSAAALRNLMANRPAKYKDANIMSPGSSLPSLHVRKQKALEAELDAQHLSETFDNIDNLSPKASHRSKQ [chain 1 N200K],1.86%
